Assay results as given in US20240150466A1 (DYNAMICURE BIOTECHNOLOGY, published 2024).
Like-named read-outs stand apart in the source and are kept apart here.

Experiments:
[1] = molecular target: T1, mouse IGFBP7 recombinant protein (mouse, UniProt Q61581 26-281, biotinylated with EZ-LINK NHS-PEG4 biotin in the BLI assays (sites not given)); test: BLI
T1 chain: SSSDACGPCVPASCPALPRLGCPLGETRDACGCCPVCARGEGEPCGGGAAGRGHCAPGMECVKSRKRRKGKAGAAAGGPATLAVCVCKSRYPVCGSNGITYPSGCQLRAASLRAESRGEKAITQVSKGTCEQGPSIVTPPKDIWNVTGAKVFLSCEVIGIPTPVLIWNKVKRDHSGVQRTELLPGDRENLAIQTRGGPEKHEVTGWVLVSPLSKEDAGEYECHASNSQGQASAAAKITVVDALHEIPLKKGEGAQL

[2] = molecular target: T2, human IGFBP7 recombinant protein (human, UniProt Q16270 27-282, biotinylated with EZ-LINK NHS-PEG4 biotin in the BLI assays (sites not given)); test: BLI (Octet QKe), biotinylated IGFBP7 on streptavidin biosensors (FIG. 9)
T2 construct: Soluble protein used for ELISA coating and, biotinylated, on streptavidin biosensors (Octet); also called hIGFBP7; biotinylated IGFBP7 protein
T2 sequence: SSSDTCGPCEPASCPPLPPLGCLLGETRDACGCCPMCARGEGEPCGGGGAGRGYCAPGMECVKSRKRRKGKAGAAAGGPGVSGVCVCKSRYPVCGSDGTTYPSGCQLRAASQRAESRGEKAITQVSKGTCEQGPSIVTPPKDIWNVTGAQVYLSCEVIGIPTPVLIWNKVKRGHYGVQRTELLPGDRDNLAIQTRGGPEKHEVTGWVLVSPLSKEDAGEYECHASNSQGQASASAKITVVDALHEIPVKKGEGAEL
Description: (§1) The binding affinity of anti-IGFBP7 nanobody Fc-fusion constructs (e.g., VHH-Fc-fusion constructs) were determined with bio-layer interferometry (BLI) using Octet QKe (Fortebio). Human, mouse, and cynomolgus IGFBP7 were biotinylated using EZ-LINK NHS-PEG4 biotin (Thermo Fisher Scientific). Streptavidin biosensors (ForteBio) were used to load biotinylated IGFBP7 protein (300 seconds in 5 μg/mL). Baseline was stabilized for 60 seconds in 1× kinetics buffer (ForteBio) before anti-IGFBP7 Fc-fucion proteins (serial dilution) were allowed to associate for 300 seconds with captured hIGFBP7 or mIGFBP7. Then the sensors were dissociated in 1× kinetics buffer for 600 seconds. Data analysis was performed on ForteBio Data Analysis HT 11.1 software.

[3] = molecular target: T3, mouse IGFBP7 displayed on cells (HEK293T or CHO-K1) (mouse, UniProt Q61581 26-281); test: flow cytometry on mIGFBP7-HEK cells (FIG. 13)
T3 construct: whole, on cells;domain: CD80 transmembrane domain; also called mIGFBP7; mIGFBP7-HEK cells; not shown: linker; CD80 transmembrane domain
T3 sequence (looked up): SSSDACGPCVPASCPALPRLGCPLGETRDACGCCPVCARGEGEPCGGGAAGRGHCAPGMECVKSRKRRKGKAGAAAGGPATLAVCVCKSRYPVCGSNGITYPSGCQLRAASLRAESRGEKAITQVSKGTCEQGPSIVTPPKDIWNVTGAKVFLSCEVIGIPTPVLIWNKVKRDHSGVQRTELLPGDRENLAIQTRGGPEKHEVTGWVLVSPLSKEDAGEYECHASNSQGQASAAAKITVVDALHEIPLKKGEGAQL
Description: (§2) After washing with FACS buffer, the cells were incubated with Alexa Fluor 488 conjugated anti-mouse IgG antibody (Jackson ImmunoResearch) for 30 minutes in 4° C. After washing with FACS buffer twice, the samples were acquired in NovoCyte Flow Cytometer and analyzed by NovoExpress software.

[4] = molecular target: T4, cynomolgus IGFBP7 recombinant protein (cynomolgus); test: BLI
T4 chain: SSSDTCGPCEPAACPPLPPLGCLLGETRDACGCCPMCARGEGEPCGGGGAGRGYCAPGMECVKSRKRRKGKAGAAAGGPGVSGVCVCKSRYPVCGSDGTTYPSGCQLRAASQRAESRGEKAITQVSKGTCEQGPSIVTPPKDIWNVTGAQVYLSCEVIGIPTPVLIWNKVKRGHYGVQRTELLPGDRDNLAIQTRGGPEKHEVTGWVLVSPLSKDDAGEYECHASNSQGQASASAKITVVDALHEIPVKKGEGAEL

[5] = molecular target: T5, mouse IGFBP7 recombinant protein (mouse, UniProt Q61581 26-281, limits assumed, biotinylated with EZ-LINK NHS-PEG4 biotin in the BLI assays (sites not given)); test: BLI (Octet QKe), biotinylated IGFBP7 on streptavidin biosensors (FIG. 10)
T5 construct: Soluble protein in ELISA and BLI; also called mIGFBP7
T5 sequence (looked up): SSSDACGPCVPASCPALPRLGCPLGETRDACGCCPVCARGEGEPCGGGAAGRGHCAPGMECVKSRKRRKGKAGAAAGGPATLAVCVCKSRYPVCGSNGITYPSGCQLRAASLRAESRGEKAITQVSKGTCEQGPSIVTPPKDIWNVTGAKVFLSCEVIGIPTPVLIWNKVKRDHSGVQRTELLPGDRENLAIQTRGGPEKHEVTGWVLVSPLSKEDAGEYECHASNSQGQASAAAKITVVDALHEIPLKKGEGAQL
Description: as §1

[6] = molecular target: T1, mouse IGFBP7 recombinant protein; test: BLI
[7] = molecular target: T6, human IGFBP7 displayed on HEK293T cells (human, UniProt Q16270 27-282); test: flow cytometry on hIGFBP7-HEK cells (FIG. 13)
T6 construct: domain: CD80 transmembrane domain; signal peptide stated as residues 1-26; also called hIGFBP7; hIGFBP7-HEK cells; not shown: linker; CD80 transmembrane domain
T6 sequence: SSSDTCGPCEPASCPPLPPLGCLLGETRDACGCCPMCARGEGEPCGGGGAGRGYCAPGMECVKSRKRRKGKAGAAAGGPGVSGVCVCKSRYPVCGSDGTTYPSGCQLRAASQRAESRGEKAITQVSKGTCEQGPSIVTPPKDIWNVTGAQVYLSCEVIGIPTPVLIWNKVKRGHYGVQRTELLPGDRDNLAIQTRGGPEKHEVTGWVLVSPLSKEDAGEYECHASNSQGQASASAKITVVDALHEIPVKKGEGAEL
Description: as §2

[8] = molecular target: T7, human IGFBP7 recombinant protein (UniProt Q16270 27-282, biotinylated with EZ-LINK NHS-PEG4 biotin in the BLI assays (sites not given)); test: BLI
T7 chain: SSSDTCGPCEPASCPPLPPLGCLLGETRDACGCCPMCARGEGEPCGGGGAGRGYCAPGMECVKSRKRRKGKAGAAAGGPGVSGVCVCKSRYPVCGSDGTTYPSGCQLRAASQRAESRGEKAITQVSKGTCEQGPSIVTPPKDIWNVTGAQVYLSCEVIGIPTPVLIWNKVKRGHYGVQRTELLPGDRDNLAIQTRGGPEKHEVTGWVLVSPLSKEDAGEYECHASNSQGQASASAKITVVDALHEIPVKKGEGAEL

[9] = molecular target: T7, human IGFBP7 recombinant protein; test: BLI
[10] = molecular target: T1, mouse IGFBP7 recombinant protein; test: BLI
[11] = molecular target: T7, human IGFBP7 recombinant protein; test: BLI

Row | Binder | Kd [1] [nM] | binding result [2] | binding result [3] | Kd [4] [nM] | binding result [5] | Kd [6] [nM] | binding result [7] | Kd [8] [nM] | Kd [9] [nM] | Kd [10] [nM] | Kd [11] [nM]
1 | A1-mIgG2a nanobody Fc-fusion (Fc fusion, VHH fused with mIgG2a Fc fragment, expressed in Expi293 cells, Protein G purified; also called monoclonal A1-mIgG2a; monospecific A1-mIgG2a; not shown: mouse IgG2a Fc fragment (mIgG2a Fc)) VQLQESGGGLVQAGGSLRLSCAASGSLFAIDKWGWYRQVAGNERELVAWRYSPVSINYGDSVKGRFTVSGDSSRKRVYLQMNSLKPDDTAVYRCAAVISGAWYWGQGTQVTVSS | 25.8 | binds | binds | 2.41 | binds | 60.1 | binds | 2.72 | 3.7 | 25.8 | 2.72
2 | bispecific anti-IGFBP7 nanobody Fc-fusion construct A1-mIgG2a-D4 (bispecific antibody, V domains shown, also called A1-mIgG2a-D4-2; not shown: mouse IgG2a Fc fragment (mIgG2a Fc)) V domain 1: VQLQESGGGLVQAGGSLRLSCAASGSLFAIDKWGWYRQVAGNERELVAWRYSPVSINYGDSVKGRFTVSGDSSRKRVYLQMNSLKPDDTAVYRCAAVISGAWYWGQGTQVTVSS V domain 2: VQLQESGGGLVQTGGSLRLSCAASGRSFTFSSYAMGWFRHAPGKEREFLTAITWSGDYTYYTDSVKGRSTISRDNAKNTVYLQLNNLKPEDTAVYYCAAKFSQVSAFFATVSEYEYWGQGTQVTVSS | 1.74 | binds | binds | 0.195 | binds | – | binds | 0.193 | – | 1.74 | 0.193
